Experimental data as given in paper PMC3680600 (Journal of the American Chemical Society, 2013).
No end group written: not given here.

The substances below were run against NF-κB Essential Modulator (NEMO), full-length recombinant human protein (residues 2–419) with five cysteine-to-alanine substitutions (human) (UniProt Q9Y6K9) (assay: fluorescence polarisation). Conditions: not given.

Kd | Substance
> 0.87 µM | MBP-IKKβ-His(C716S) D738A (from UniProt O14920 701-745) (domain or fragment)
> 0.87 µM | MBP-IKKβ-His(C716S) L708A (from UniProt O14920 701-745) (domain or fragment)
> 0.87 µM | MBP-IKKβ-His(C716S) L719A (from UniProt O14920 701-745) (domain or fragment)
> 0.87 µM | MBP-IKKβ-His(C716S) L742A (from UniProt O14920 701-745) (domain or fragment)
> 0.87 µM | MBP-IKKβ-His(C716S) W739A (from UniProt O14920 701-745) (domain or fragment)
> 0.87 µM | MBP-IKKβ-His(C716S) W741A (from UniProt O14920 701-745) (domain or fragment)
0.015 µM | WT MBP-IKKβ-His (from UniProt O14920 701-745) (domain or fragment)
11 µM | cleaved IKKβ peptide D738A (from UniProt O14920 701-745)
2.7 µM | cleaved IKKβ peptide L708A (from UniProt O14920 701-745)
21 µM | cleaved IKKβ peptide L719A (from UniProt O14920 701-745)
5.5 µM | cleaved IKKβ peptide L742A (from UniProt O14920 701-745)
35 µM | cleaved IKKβ peptide W739A (from UniProt O14920 701-745)
9.3 µM | cleaved IKKβ peptide W741A (from UniProt O14920 701-745)

Each substance was assayed against full-length recombinant human NEMO (Homo sapiens, UniProt Q9Y6K9, C11A/C131A/C167A/C76A/C95A) (assay: Fluorescence anisotropy). Conditions: KD2 competition assay vs KD1 direct binding assay.

KD2 of unlabeled peptide relative to KD1 of FITC-IKKβ | Substance
~ 4 fold | PAKKSEELVAEAHNLCTLLENAIQDTVREQDQSFTALDWSWLQTE [IKKβ(701–745)]
